From US5731411, “Promotion of homologous DNA pairing by RecA-derived peptides” (The United States of America as represented by the …) come the findings set out here.

For data set [1], the target named is T1, FECO (RecA residues 193-212 peptide) (Escherichia coli, UniProt P0A7G8 SEQ:1-20).
T1 chain: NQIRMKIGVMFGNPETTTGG
In words: CD, random coil to beta structure, pH 7.5. Particulars: protein: synthetic; tags: synthetic peptide, HPLC purified.

Data set [2] concerns the target T1, FECO (RecA residues 193-212 peptide). In words: filter; 10 mM MgCl2, pH 8.3, room temp; less tight without Mg; unstacks ssDNA (permanganate); joint molecules with homologous pBluescript but not pUC19 (Example 5). Conditions: protein: synthetic; tags: synthetic peptide, HPLC purified; label: 5' 32P.
Data set [3] addresses T2, WT-14 (RecA residues 196-209 peptide) (Escherichia coli, UniProt P0A7G8).
T2 chain: RMKIGVMFGNPETT
In words: filter; peptide up to 100 uM, pH 8.3; no joint molecules. Conditions: protein: synthetic; tags: synthetic peptide, HPLC purified; label: 5' 32P.

B1: 57-mer ssDNA (ssDNA)
DNA: CTGTCTACTCTCGAGGTTAACCCGTGCGAATTCTACGATTGGTGCGGCCGGTATATC
Consider B1, for which the binding result in data set [1] was “binds”.

B2: BS-S1 ssDNA (ssDNA)
DNA: GGCCGCTCTAGAACTAGTGGATCCCCCGGGCTGCAGGAATTCGATATCAAGCT
Take B2: the binding result in data set [2] is given as “binds”; in data set [3], “no binding”.
